The source of these data is publication PMC4036328.

What is called stoichiometry N is a count of units in the complex or per binding partner.

Test [1] addresses MjNhaP1 D161A mutant (NhaP1 Na+/H+ antiporter from Methanocaldococcus jannaschii) (Methanocaldococcus jannaschii) (UniProt Q60362). The experiment in a line: Western blotting; dimers observed by Western blotting; data not shown; no conditions told. Background: A western blot detects proteins with antibodies after separation by electrophoresis.
Test [2] deals with MjNhaP1 N160A mutant (NhaP1 Na+/H+ antiporter from Methanocaldococcus jannaschii) (Methanocaldococcus jannaschii) (UniProt Q60362). Described as above.

As to “MjNhaP1 D161A mutant (NhaP1 Na+/H+ antiporter from Methanocaldococcus jannaschii) (from UniProt Q60362 1-426) (natural protein)”, the stoichiometry N in test [1] is 2. As for “MjNhaP1 N160A mutant (NhaP1 Na+/H+ antiporter from Methanocaldococcus jannaschii) (from UniProt Q60362 1-426) (natural protein)”, the stoichiometry N in test [2] was found to be 2.
